Here are results for two molecules from publication PMC10869471, “Pectin methylesterase 31 is transcriptionally repressed by ABI5 to negatively regulate ABA-mediated inhibition of seed germination”.

Data set [1] deals with T1, His-ABI5 (UniProt Q9SJN0 1-442).
T1 sequence: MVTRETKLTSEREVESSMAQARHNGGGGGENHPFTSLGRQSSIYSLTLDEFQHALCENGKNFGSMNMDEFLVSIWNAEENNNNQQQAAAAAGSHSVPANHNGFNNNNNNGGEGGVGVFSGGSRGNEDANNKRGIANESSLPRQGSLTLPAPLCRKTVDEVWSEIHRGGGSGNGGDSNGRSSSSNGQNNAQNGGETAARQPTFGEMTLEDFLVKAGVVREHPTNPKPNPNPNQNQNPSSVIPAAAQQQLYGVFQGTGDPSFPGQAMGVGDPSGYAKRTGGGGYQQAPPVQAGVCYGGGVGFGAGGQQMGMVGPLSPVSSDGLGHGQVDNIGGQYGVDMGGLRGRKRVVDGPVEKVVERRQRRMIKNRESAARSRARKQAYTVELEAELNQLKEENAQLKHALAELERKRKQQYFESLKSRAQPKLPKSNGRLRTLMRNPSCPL
As to the kind of experiment: EMSA; suppressed by 50x and 100x unlabeled probe; Chemiluminescent EMSA Kit (Beyotime); binding buffer, salt, pH and temperature not stated (protein eluted in 100 mM HEPES, 500 mM imidazole, pH 7.5). The settings on record: protein: recombinant; tags: His (pET-30a); label: biotin; blunt.

In data set [2] the target is T1, His-ABI5. Briefly: competition; 100x unlabeled mutated competitor against labeled N1; Chemiluminescent EMSA Kit (Beyotime); binding buffer, salt, pH and temperature not stated (protein eluted in 100 mM HEPES, 500 mM imidazole, pH 7.5). The settings on record: protein: recombinant; tags: His (pET-30a); blunt.

Residue numbers refer to the chain shown, from its start.

B1: proPME31 probe (50 bp) (dsDNA)
DNA 1: TTGAACAAAGAACTGTTACACGTAGAACCAAACAATATGATGAAAAGTAT
DNA 2: ATACTTTTCATCATATTGTTTGGTTCTACGTGTAACAGTTCTTTGTTCAA
As to B1, the binding result with His-ABI5 [1] is listed as “binds”.

B2: proPME31 mutated probe (mComp) (dsDNA)
DNA 1: B1 DNA 1 with C19A, C21A, G22A, T23A
DNA 2: B1 DNA 2 with A28T, C29T, G30T, G32T
Take B2: the binding result with His-ABI5 [2] was “no binding”.
